Assay in all cases: cell-based or functional assay
Experiment [1] has as its target CD16VS (construct #5: 176 V; SCRAMBLED original sequence), without Myc tag (human) (UniProt P08637).
Experiment [2] addresses high affinity (158 Val) and proteinase cleavage resistant (197Pro) CD16 variant (CD16VP) (human) (UniProt P08637).
The target in experiment [3] is endogenous CD16 on non-transduced (NT) placental NK cells (human) (UniProt P08637).
In experiment [4] the target is HER2 (human epidermal growth factor 2) on HER2 overexpressing tumor cell lines (human) (UniProt P04626).
In experiment [5] the target is Construct #10 (176 V (also referred to as 158 V); 197 Serine (S)), without Myc tag (human) (UniProt P08637).
Experiment [6] has as its target Construct #1 (176 V; 197 Glycine (G)), without Myc tag (human) (UniProt P08637).

Sequence of Avelumab (anti-PD-L1 antibody) (HC): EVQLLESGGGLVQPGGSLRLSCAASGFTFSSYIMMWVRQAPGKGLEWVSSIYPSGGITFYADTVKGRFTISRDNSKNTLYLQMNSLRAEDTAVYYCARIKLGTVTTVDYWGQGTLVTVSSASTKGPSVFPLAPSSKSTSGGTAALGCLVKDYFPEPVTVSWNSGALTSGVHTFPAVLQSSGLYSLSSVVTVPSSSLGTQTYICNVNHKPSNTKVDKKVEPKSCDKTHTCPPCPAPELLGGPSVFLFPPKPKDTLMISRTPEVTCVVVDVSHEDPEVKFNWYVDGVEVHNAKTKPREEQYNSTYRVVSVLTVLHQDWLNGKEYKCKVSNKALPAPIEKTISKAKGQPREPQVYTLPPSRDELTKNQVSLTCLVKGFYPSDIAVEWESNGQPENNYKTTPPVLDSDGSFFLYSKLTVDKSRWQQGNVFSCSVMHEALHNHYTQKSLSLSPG
Sequence of Avelumab (anti-PD-L1 antibody) (LC): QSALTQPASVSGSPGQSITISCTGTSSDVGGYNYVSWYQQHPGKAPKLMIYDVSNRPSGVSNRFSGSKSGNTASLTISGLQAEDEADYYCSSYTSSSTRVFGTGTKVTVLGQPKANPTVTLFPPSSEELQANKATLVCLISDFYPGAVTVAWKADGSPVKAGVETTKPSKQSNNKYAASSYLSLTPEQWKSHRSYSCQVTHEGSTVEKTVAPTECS

Avelumab (anti-PD-L1 antibody): in experiment [1], the cytolysis of 5637, T-24, RT-112 and NCI-H1975 tumor cell lines by PT-CD16VS cells with Avelumab, 24 hours, 5:1 E:T ratio turned out to be 100%; the cytolysis of MDA-MB-231 by PT-CD16VS cells with Avelumab, 12 hours, 5:1 E:T ratio came out at 70%.
As to Daratumumab (anti-CD38) (antibody), in experiment [2], the cytotoxicity (ADCC) of PNK-CD16VP cells against Daratumumab opsonized Daudi cells, E:T 10:1 (n=5) stood at 47%; the cytotoxicity (ADCC) of PNK-CD16VP cells against Daratumumab opsonized HS-Sultan cells, E:T 10:1 (n=3) was 30%; the cytotoxicity (ADCC) of PNK-CD16VP cells against Daratumumab opsonized Sudh16 cells, E:T 10:1 (n=3) stood at 30%. In experiment [3], this substance showed a cytotoxicity (ADCC) of NT cells against Daratumumab opsonized Daudi cells, E:T 10:1 (n=5) of 25%; a cytotoxicity (ADCC) of NT cells against Daratumumab opsonized HS-Sultan cells, E:T 10:1 (n=3) of 21%; a cytotoxicity (ADCC) of NT cells against Daratumumab opsonized Sudh16 cells, E:T 10:1 (n=3) of 16%.
Regarding “Ultra-LEAF purified human IgG1 isotype control recombinant antibody”, in experiment [4], the lysis of NCI-N87 cells by CYNK-101 cells (n=7 donors) in the presence of IgG control, 24 h, E:T 0.6:1, xCELLigence was 7.5% and the lysis of OE19 cells by CYNK-101 cells (n=7 donors) in the presence of IgG control, 24 h, E:T 0.6:1, xCELLigence is 14.7%.
Turning to “metalloprotease ADAM17 (from UniProt P78536 215-824) (enzyme)”, the CD16 shedding percentage post 2 h PMAi stimulation, transduced CYNK cells (n=6 donors) in experiment [5] came out at 1.8%; in experiment [1], 0.6%; in experiment [6], 9.4%; in experiment [2], 4.3%. Also, in experiment [2], the CD16 shedding after PMA/ionomycin activation, flow cytometry, PNK-CD16VP cells was < 11%. In experiment [3], this substance had a CD16 shedding after 2 h PMAi, control sample of 60%. Further, the CD16 shedding percentage post 2 h PMAi stimulation, NT CYNK cells in experiment [3] is 74.7%.

These data come from patent publication US20250295776A1, “CLEAVAGE RESISTANT CD16 CONSTRUCTS AND USES THEREOF” (Celularity Inc., priority 2022, published 2025).
